Source: patent publication US20190390248

Target: human prothrombin (UniProt P00734)

With “carinactivase-2 from Echis carinatus venom” the “percent of S-2238 hydrolysed by the thrombin formed” value was “followed by carinactivase-2 (2.5%)” and the Thrombin generation rate (scale: nmol thrombin/mL/min/µmol prothrombin/µmol activator) was 1.91.
